# From the Human Domainome abundance scans (Beltran et al. 2025)
# ± gives the uncertainty stated by the source.
# B1: POU domain, class 2, transcription factor 2, residues 200 to 269; numbered along this chain, P09086 (parent)
# chain: LEELEQFARTFKQRRIKLGFTQGDVGLAMGKLYGNDFSQTTISRFEALNLSFKNMCKLKPLLEKWLNDAE
# B2: Max-interacting protein 1, residues 70 to 120; numbered along this chain, P50539 (parent)
# chain: STHNELEKNRRAHLRLCLERLKVLIPLGPDCTRHTTLGLLNKAKAHIKKLE
# Variants of: B1
# Assay: abundance fitness (aPCA) (normalised: wild type 0, dead -1); higher = more abundant; growth selection in yeast, the domain comes from the species named
# Details: Homo sapiens
row,Variant,abundance fitness
1,LEELEQFARTFKQRRIKLGFTQGDVGLAMGKLYGNHFSQTTISRFEALNLSFKNMCKLKPLLEKWLNDAE [D36H],-0.003 ± 0.17
2,LEELEQFARTFKQRRIKLGFTQGDVGLMMGKLYGNDFSQTTISRFEALNLSFKNMCKLKPLLEKWLNDAE [A28M],-0.047 ± 0.059
3,LEELEQFARTFKQRRYKLGFTQGDVGLAMGKLYGNDFSQTTISRFEALNLSFKNMCKLKPLLEKWLNDAE [I16Y],-0.194 ± 0.076
4,LEELEQFARTFKQRRIKLGFTVGDVGLAMGKLYGNDFSQTTISRFEALNLSFKNMCKLKPLLEKWLNDAE [Q22V],-0.059 ± 0.038
5,LEELEQFARTFKQRRIKLGFTQGDVGLAMGKYYGNDFSQTTISRFEALNLSFKNMCKLKPLLEKWLNDAE [L32Y],0 ± 0.084
6,LEELEQFARTFKQRRIKLGFTQGDVGLAMGKLYGNDFSQTTISRFEALNLSFKNMCKLIPLLEKWLNDAE [K59I],0.001 ± 0.13
7,LEELEQFARTFKQRRIKLGFTQGDVGLAMGKLYGNDFSQTTISRFEALNLSFKNMCKLNPLLEKWLNDAE [K59N],-0.435 ± 0.11
8,LEELEQFARTFKQRRIKLGFTQGDVGLAMGKLYGNDFSQTTISRFEALNLSFKNFCKLKPLLEKWLNDAE [M55F],-0.127 ± 0.06
9,LEQLEQFARTFKQRRIKLGFTQGDVGLAMGKLYGNDFSQTTISRFEALNLSFKNMCKLKPLLEKWLNDAE [E3Q],-0.003 ± 0.061
10,LEELEQFARTFKQRRIKLGFTQGDVGLAMGKLYGNDESQTTISRFEALNLSFKNMCKLKPLLEKWLNDAE [F37E],-0.255 ± 0.08
11,LEELEQFARTFKQRRIKLGFTQGDVGLAMGKLYGNDFSQTTISRFNALNLSFKNMCKLKPLLEKWLNDAE [E46N],-0.973 ± 0.19
12,LEELEQFARTFKQRRIKLGFTQGDVGLAWGKLYGNDFSQTTISRFEALNLSFKNMCKLKPLLEKWLNDAE [M29W],-0.557 ± 0.061
13,LEELEQFARTFKQRRIKLGFTQGDVGLAMGKLYGNDFSQTTISRFEALNLSFKNMCKLKPLIEKWLNDAE [L62I],0.014 ± 0.096
14,LEELEQFARTFKQRRIKLGFTQGDVGLAMGKLYGNDFSQTTISRFEALNLSFKNMCKLKPLMEKWLNDAE [L62M],0.025 ± 0.05
15,LEELWQFARTFKQRRIKLGFTQGDVGLAMGKLYGNDFSQTTISRFEALNLSFKNMCKLKPLLEKWLNDAE [E5W],-0.073 ± 0.054
16,LEELEQFARTFKQRRIKLGFTQGDVGLAMGKLYGNDFSVTTISRFEALNLSFKNMCKLKPLLEKWLNDAE [Q39V],-0.002 ± 0.031
17,LEELEQFARTFKQRRIKPGFTQGDVGLAMGKLYGNDFSQTTISRFEALNLSFKNMCKLKPLLEKWLNDAE [L18P],-1.05 ± 0.13
18,LEELEQFARTFKQRRIKLGFTQGDVGLAMGKLYGNDFSQTTISRFEALNLSFKNMCKLKPLLEKWFNDAE [L66F],-0.27 ± 0.11
19,LEELEQFARTFKQRRIKLGFTQGDVWLAMGKLYGNDFSQTTISRFEALNLSFKNMCKLKPLLEKWLNDAE [G26W],-0.023 ± 0.044
20,LEELEQFARTFKQRRIKLGFTQGDVHLAMGKLYGNDFSQTTISRFEALNLSFKNMCKLKPLLEKWLNDAE [G26H],-0.109 ± 0.12

row,Variant,abundance fitness
1,LEELEQFARTFKQRRIKLGFTQGDVGLAMGKLYGNDFSQTTISRFEALNLSFKNMCKLKPMLEKWLNDAE [L61M],-0.031 ± 0.044
2,LEELEQFARTFKQRRIKLGFTQGDVGLAMGKLYGNDFSQTTISRFEALNLSFKNMCPLKPLLEKWLNDAE [K57P],-0.44 ± 0.064
3,LEELEQFARTFKQRRIKLGFTQGDQGLAMGKLYGNDFSQTTISRFEALNLSFKNMCKLKPLLEKWLNDAE [V25Q],-1.03 ± 0.1
4,LEELEQFARTFKQRRIKLGFTQGDHGLAMGKLYGNDFSQTTISRFEALNLSFKNMCKLKPLLEKWLNDAE [V25H],-0.996 ± 0.41
5,LEELEQFARTFKQRRIKLGFTQGDVGLAMGKLYGNDFSQTTISRFEALNLSFKNMCKNKPLLEKWLNDAE [L58N],-0.227 ± 0.11
6,LEELEQFARTFKQRRIKLGFTQGDVGLAMYKLYGNDFSQTTISRFEALNLSFKNMCKLKPLLEKWLNDAE [G30Y],-0.051 ± 0.076
7,LEELEQFARTFKQRRIKLGFTQGDVGLAMGKLYGNDFSQTTISREEALNLSFKNMCKLKPLLEKWLNDAE [F45E],-1.09 ± 0.16
8,LEELEQFARTFKQRRIKLGFTQGDVGLAMGKLYGNDFSQTTISRFEALNLSFENMCKLKPLLEKWLNDAE [K53E],0.003 ± 0.05
9,LEELESFARTFKQRRIKLGFTQGDVGLAMGKLYGNDFSQTTISRFEALNLSFKNMCKLKPLLEKWLNDAE [Q6S],0.001 ± 0.06
10,LEELEQFARTFKQRRIKLGFTQGDVGLAMGKLYGNDFSQTTISRFEALNLSFKNMCKLKPLLEKWLNCAE [D68C],-0.053 ± 0.066
11,LEELEQFARTFKQRRIKLGFTQGDVGLAMGKLYRNDFSQTTISRFEALNLSFKNMCKLKPLLEKWLNDAE [G34R],-0.132 ± 0.038
12,LEELEQFARTFKQRRIKLGFTQGDVGLAMGKLYGNDFSQTTISRFEALNLSFKNMCKLKPLLEKWLNDAH [E70H],-0.341 ± 0.15
13,LEELEQFARTFKQRRIKLGFTQGDVGLAMGKLYGNDFSQTTISRFEALNLSFKNMCKLKDLLEKWLNDAE [P60D],-0.082 ± 0.077
14,LEELEQFARTFKQRRIKLGFTQGNVGLAMGKLYGNDFSQTTISRFEALNLSFKNMCKLKPLLEKWLNDAE [D24N],-0.091 ± 0.058
15,LEELEQFARTFKQRRIKLGFTQGKVGLAMGKLYGNDFSQTTISRFEALNLSFKNMCKLKPLLEKWLNDAE [D24K],-0.202 ± 0.067
16,LEELEQFARTFKQRRIKLGFTQGDVGLAMGKLYGNDFSQTTISYFEALNLSFKNMCKLKPLLEKWLNDAE [R44Y],-0.033 ± 0.093
17,LEELEQFARTFKQRRIKLGFTQGDVGLAMGKLYGNDFSQTTISRFEALNLSFKNMKKLKPLLEKWLNDAE [C56K],0.015 ± 0.055
18,LMELEQFARTFKQRRIKLGFTQGDVGLAMGKLYGNDFSQTTISRFEALNLSFKNMCKLKPLLEKWLNDAE [E2M],0.173 ± 0.095
19,LEELEQFARTFKQRRIKLGFTQGDVGLAMGKLYGNDFSQTTISRFEALNLNFKNMCKLKPLLEKWLNDAE [S51N],-0.037 ± 0.19
20,LEELEQFARTFKQRRIKLGFTQGDVGLAMGKLYGPDFSQTTISRFEALNLSFKNMCKLKPLLEKWLNDAE [N35P],-0.017 ± 0.034

# Variants of: B2
# Assay: as above
# Details: Homo sapiens
row,Variant,abundance fitness
1,STHNELEMNRRAHLRLCLERLKVLIPLGPDCTRHTTLGLLNKAKAHIKKLE [K8M],-0.511 ± 0.14
2,STHNELEKNRRAHLRACLERLKVLIPLGPDCTRHTTLGLLNKAKAHIKKLE [L16A],-0.05 ± 0.1
3,STHNELEKNRRAHLRWCLERLKVLIPLGPDCTRHTTLGLLNKAKAHIKKLE [L16W],0.07 ± 0.1
4,STHNELEKNRRAHLRLCSERLKVLIPLGPDCTRHTTLGLLNKAKAHIKKLE [L18S],-0.455 ± 0.1
